Reference: the Human Domainome abundance scans (Beltran et al. 2025)

B1: Homeobox protein cut-like 2, residues 895 to 963; numbered along this chain, O14529 (parent)
chain: EVDTLELTRQVKEKLAKNGICQRIFGEKVLGLSQGSVSDMLSRPKPWSKLTQKGREPFIRMQLWLSDQL

Variants of: B1
Assay: abundance fitness (aPCA) (normalised: wild type 0, dead -1); higher = more abundant; growth selection in yeast, the domain comes from the species named
Conditions: Homo sapiens

Abundance fitness of substitutions, site by site:
S38: Y -0.008, G -0.097, N 0.012, Q 0.03, H 0.005, E 0.106, P -0.209, A 0.015, K 0.06, T 0.006, D 0.007, R 0.024, F -0.221
S33: Q -0.027, C -0.035, P 0.03, L -0.057, M 0.053, V -0.061, A -0.042, F -0.009, I -0.088, T -0.036, K 0.023, N -0.003, Y -0.12, G -0.03
P44: A -0.103, Q -0.135, Y -0.041, N -0.385, I -0.113, H -0.241, R -0.03, F -0.105, D -0.429, G -0.261, K -0.134, S -0.171, C -0.153, E -0.665, T -0.101, W -0.103, M -0.196, V -0.161
P46: R -0.057, L 0.026, H -0.077, Q -0.053, C -0.319, V -0.415, M -0.214, A -0.236, T -0.08, K -0.095, I -0.071, N -0.223, W 0.044, F 0.039, S -0.093, Y -0.078
W47: T -0.654, E -1.08, M -0.681, C -1.01, R -0.793, Q -0.84, F -0.338, P -0.964, H -0.894, L -0.488, Y -0.554, N -0.895, D -0.772, V -0.808, G -1.01, A -0.81, K -1.28
G31: V -0.514, H -0.059, P -0.378, F -0.317, I -0.712, N -0.121, E -0.48, R -0.107, Y -0.449, M -0.347, S -0.134, K -0.129, T -0.274, L -0.314, D -0.132, W -0.367, Q -0.213
K49: I -0.112, H 0.009, T -0.035, S -0.079, L 0.002, F -0.281, P -0.731, Q 0.034, Y -0.301, N -0.16
L50: S -0.865, T -0.808, D -0.607, Q -0.874, A -0.748, Y -0.191, C -0.488, F -0.315, P -1.04, G -0.652, W -0.12, E -1.11, K -1.3, V -0.522, R -1.11, I -0.437
S48: Y -0.084, H -0.011, R -0.13, F -0.19, C -0.003, E -0.103, I -0.223, W -0.387, T -0.085, K -0.088, V -0.259, N -0.055, P -0.229, M -0.323, Q -0.085, A -0.064, L -0.191
S36: M -0.024, D 0.134, I 0.027, H -0.062, W -0.057, L 0.021, Y -0.062, F -0.093, V 0.064, A 0.073, N -0.045, E 0.152, R -0.097, P -0.08, T 0.002, G -0.34, Q 0.15
R43: G -0.233, K -0.047, S 0.064, T -0.162, I -0.329, E -0.124, D 0.013, Q -0.066, H 0.004, W -0.191, Y 0.017, A -0.034, P -0.357, F -0.101, N -0.03, C -0.14, V -0.23, M -0.224
L41: H -0.37, C -0.452, K -0.193, T -0.505, Y -0.418, D -0.353, N -0.481, I -0.315, S -0.234, R -0.226, W -0.25, E -0.41, G -0.107, P -0.257, Q -0.303, F -0.088, V -0.518, M -0.214, A -0.223
K45: W -0.313, M -0.053, V -0.083, Y -0.265, L -0.009, E -0.173, Q -0.132, F -0.243, D -0.108, A -0.129, H -0.288, P -0.073, T -0.149, R 0.128, C -0.229
S42: A -0.014, H -0.007, G -0.272, D 0.039, P -0.159, Q -0.092, N -0.095, K 0.009, V -0.146, F -0.167, L -0.086, T -0.169, M 0.012, C -0.004, Y -0.075, E 0.059, R -0.054
D39: Y -0.324, R -0.456, H -0.279, T -0.17, I -0.26, M -0.178, G 0.026, N -0.188, A -0.063, W -0.328, Q 0.005, P -0.184, C -0.15, S -0.073, V -0.389, K -0.441, E 0.029
M40: W 0.048, S -0.201, L 0.136, N -0.473, H -0.287, K -0.02, A -0.169, E -0.475, P -0.251, Q -0.29, G -0.298, I 0.007, T -0.224, D -0.059, V -0.046, F -0.189, C -0.045, Y -0.236, R -0.145
G35: D -0.125, H -0.043, Y -0.125, C -0.211, V -0.058, A -0.006, W -0.106, K 0.124, T 0.039, E 0.135, Q 0.088, I -0.215, M -0.098, S 0.027, P -0.077, R 0.037, N 0.044, L -0.03, F -0.079
T51: C -0.375, A -0.1
V37: Y -0.257, M -0.227, C -0.031, R -0.223, P -0.311, W -0.061, D -0.397, F 0.01, A -0.139, G -0.206, H -0.378, N -0.435, T 0, I -0.156, S -0.232, E -0.436, L 0.016, K -0.232
L32: P -0.286, F -0.141, R -0.179, Y -0.281, I -0.063, S -0.203, H -0.231, V 0.132, K -0.169, C -0.136, A -0.279, N -0.305, Q -0.304, T -0.211, E -0.227, M -0.032, W -0.043
Q34: N 0.046, R 0.282, I 0.005, P 0.053, S -0.028, G 0.434, K 0.069, F 0.003, C -0.262, V 0.073, L -0.003, Y -0.05, W 0.088, E -0.254, D -0.078, M -0.06, H 0.027, A 0.088
